Starred links: 1 amine or outer side, 2 acyl side, 3 side chain; linkers in the order of their positions; H or OH if unused. Non-standard residues stand in square brackets, D forms with d. No end group written: not given here. *: point of attachment. Tyr(Me) = O-methyltyrosine, COc1ccc(C[C@H](N[*:1])C(=O)[*:2])cc1; Thr(Me) = O-methylthreonine, CO[C@H](C)[C@H](N[*:1])C(=O)[*:2]; Ala(piperidin-4-yl) = O=C([C@H](CC1CCN([*:3])CC1)N[*:1])[*:2]; Phe(4-F) = N[C@@H](Cc1ccc(F)cc1)C(=O)O; 2Nal = N[C@@H](Cc1ccc2ccccc2c1)C(=O)O; Amidino = amidino group, N=C(N)*; Cha = N[C@@H](CC1CCCCC1)C(=O)O; 4Amb = NCc1ccc(C(=O)O)cc1; Nva = CCC[C@H](N)C(=O)O; 2Abz = Nc1ccccc1C(=O)O; Dap = NC[C@H](N)C(=O)O; Inp = O=C(O)C1CCNCC1; Bz = O=C(c1ccccc1)*
B1: [Abz(2)24, Cha27,36, Ile28,31, Trp30]-PYY(24-36) (peptide)
peptide: [2Abz]RH[Cha]INWITRQR[Cha]-NH2
modifications: N-terminus assumed
SMILES: CC[C@H](C)[C@H](NC(=O)[C@H](CC1CCCCC1)NC(=O)[C@H](Cc1c[nH]cn1)NC(=O)[C@H](CCCNC(=N)N)NC(=O)c1ccccc1N)C(=O)N[C@@H](CC(N)=O)C(=O)N[C@@H](Cc1c[nH]c2ccccc12)C(=O)N[C@H](C(=O)N[C@H](C(=O)N[C@@H](CCCNC(=N)N)C(=O)N[C@@H](CCC(N)=O)C(=O)N[C@@H](CCCNC(=N)N)C(=O)N[C@@H](CC1CCCCC1)C(N)=O)[C@@H](C)O)[C@@H](C)CC
notes: also called compound No. 68
B2: Benzoyl-[Cha27,36, Ile28, Arg31]-PYY(25-36) (peptide)
peptide: Bz-RH[Cha]INLRTRQR[Cha]-NH2
SMILES: CC[C@H](C)[C@H](NC(=O)[C@H](CC1CCCCC1)NC(=O)[C@H](Cc1c[nH]cn1)NC(=O)[C@H](CCCNC(=N)N)NC(=O)c1ccccc1)C(=O)N[C@@H](CC(N)=O)C(=O)N[C@@H](CC(C)C)C(=O)N[C@@H](CCCNC(=N)N)C(=O)N[C@H](C(=O)N[C@@H](CCCNC(=N)N)C(=O)N[C@@H](CCC(N)=O)C(=O)N[C@@H](CCCNC(=N)N)C(=O)N[C@@H](CC1CCCCC1)C(N)=O)[C@@H](C)O
notes: also called compound No. 65
B3: 4-Aminomethylbenzoyl-[Ala26, Ile28,31, Phe(4F)30]-PYY(25-36) (peptide)
peptide: [4Amb]RAYIN[Phe(4-F)]ITRQRY-NH2
modifications: N-terminus assumed
SMILES: CC[C@H](C)[C@H](NC(=O)[C@H](Cc1ccc(O)cc1)NC(=O)[C@H](C)NC(=O)[C@H](CCCNC(=N)N)NC(=O)c1ccc(CN)cc1)C(=O)N[C@@H](CC(N)=O)C(=O)N[C@@H](Cc1ccc(F)cc1)C(=O)N[C@H](C(=O)N[C@H](C(=O)N[C@@H](CCCNC(=N)N)C(=O)N[C@@H](CCC(N)=O)C(=O)N[C@@H](CCCNC(=N)N)C(=O)N[C@@H](Cc1ccc(O)cc1)C(N)=O)[C@@H](C)O)[C@@H](C)CC
notes: also called compound No. 58
B4: Amidino-[Gly23, Pic(4)24, Cha27,36, Ile 28,31, Trp30]-PYY(23-36) (peptide)
peptide: Amidino-G[Inp]RH[Cha]INWITRQR[Cha]-NH2
SMILES: CC[C@H](C)[C@H](NC(=O)[C@H](CC1CCCCC1)NC(=O)[C@H](Cc1c[nH]cn1)NC(=O)[C@H](CCCNC(=N)N)NC(=O)C1CCN(C(=O)CNC(=N)N)CC1)C(=O)N[C@@H](CC(N)=O)C(=O)N[C@@H](Cc1c[nH]c2ccccc12)C(=O)N[C@H](C(=O)N[C@H](C(=O)N[C@@H](CCCNC(=N)N)C(=O)N[C@@H](CCC(N)=O)C(=O)N[C@@H](CCCNC(=N)N)C(=O)N[C@@H](CC1CCCCC1)C(N)=O)[C@@H](C)O)[C@@H](C)CC
notes: also called compound No. 96
B5: Benzoyl-[Ala(4Pip)27, Ile28,31, Trp30, Cha36]-PYY(25-36) (peptide)
peptide: Bz-RH[Ala(piperidin-4-yl)]INWITRQR[Cha]-NH2
modifications: also: Ala(4Pip) D or L form not assigned (later peak)
notes: Ala(4Pip) is any of D-form and L-form; also called compound No. 66
B6: 4-Aminomethylbenzoyl-[Ala26, Ile28,31, Tyr(Me)36]-PYY(25-36) (peptide)
peptide: [4Amb]RAYINLITRQR[Tyr(Me)]-NH2
modifications: N-terminus assumed
SMILES: CC[C@H](C)[C@H](NC(=O)[C@H](Cc1ccc(O)cc1)NC(=O)[C@H](C)NC(=O)[C@H](CCCNC(=N)N)NC(=O)c1ccc(CN)cc1)C(=O)N[C@@H](CC(N)=O)C(=O)N[C@@H](CC(C)C)C(=O)N[C@H](C(=O)N[C@H](C(=O)N[C@@H](CCCNC(=N)N)C(=O)N[C@@H](CCC(N)=O)C(=O)N[C@@H](CCCNC(=N)N)C(=O)N[C@@H](Cc1ccc(OC)cc1)C(N)=O)[C@@H](C)O)[C@@H](C)CC
notes: also called compound No. 7
B7: 4-Aminomethylbenzoyl-[Ala26, Ile28,31, Thr(Me)32]-PYY(25-36) (peptide)
peptide: Bz-RAYINLI[Thr(Me)]RQRY-NH2
notes: also called compound No. 74
B8: Ac-[Ala26, Ile28,31]-PYY(20-36) (peptide)
peptide: Ac-YYASLRAYINLITRQRY-NH2
notes: also called compound No. 5
B9: 4-Aminomethylbenzoyl-[Ala26, Ile28,31, Nal(2)30]-PYY(25-36) (peptide)
peptide: [4Amb]RAYIN[2Nal]ITRQRY-NH2
modifications: N-terminus assumed
SMILES: CC[C@H](C)[C@H](NC(=O)[C@H](Cc1ccc(O)cc1)NC(=O)[C@H](C)NC(=O)[C@H](CCCNC(=N)N)NC(=O)c1ccc(CN)cc1)C(=O)N[C@@H](CC(N)=O)C(=O)N[C@@H](Cc1ccc2ccccc2c1)C(=O)N[C@H](C(=O)N[C@H](C(=O)N[C@@H](CCCNC(=N)N)C(=O)N[C@@H](CCC(N)=O)C(=O)N[C@@H](CCCNC(=N)N)C(=O)N[C@@H](Cc1ccc(O)cc1)C(N)=O)[C@@H](C)O)[C@@H](C)CC
notes: also called compound No. 56
B10: Benzoyl-[Dap27, Ile28,31, Trp30, Cha36]-PYY(25-36) (peptide)
peptide: Bz-RH[Dap]INWITRQR[Cha]-NH2
SMILES: CC[C@H](C)[C@H](NC(=O)[C@H](CN)NC(=O)[C@H](Cc1c[nH]cn1)NC(=O)[C@H](CCCNC(=N)N)NC(=O)c1ccccc1)C(=O)N[C@@H](CC(N)=O)C(=O)N[C@@H](Cc1c[nH]c2ccccc12)C(=O)N[C@H](C(=O)N[C@H](C(=O)N[C@@H](CCCNC(=N)N)C(=O)N[C@@H](CCC(N)=O)C(=O)N[C@@H](CCCNC(=N)N)C(=O)N[C@@H](CC1CCCCC1)C(N)=O)[C@@H](C)O)[C@@H](C)CC
notes: also called compound No. 67
B11: 4-Aminomethylbenzoyl-[Ala26, Ile28,31, Nva32]-PYY(25-36) (peptide)
peptide: [4Amb]RAYINLI[Nva]RQRY-NH2
modifications: N-terminus assumed
SMILES: CCC[C@H](NC(=O)[C@@H](NC(=O)[C@H](CC(C)C)NC(=O)[C@H](CC(N)=O)NC(=O)[C@@H](NC(=O)[C@H](Cc1ccc(O)cc1)NC(=O)[C@H](C)NC(=O)[C@H](CCCNC(=N)N)NC(=O)c1ccc(CN)cc1)[C@@H](C)CC)[C@@H](C)CC)C(=O)N[C@@H](CCCNC(=N)N)C(=O)N[C@@H](CCC(N)=O)C(=O)N[C@@H](CCCNC(=N)N)C(=O)N[C@@H](Cc1ccc(O)cc1)C(N)=O
notes: also called compound No. 61

Tests used:
[1] = biological target: human Y2 receptor (human) (UniProt P49146); test: cell-based or functional assay
[2] = biological target: human Y2 receptor (human) (UniProt P49146); test: RBA: [125I]-PYY displacement, hY2R/CHO membranes
human Y2 receptor [3] = biological target: T1, human Y2 receptor (human, UniProt P49146 1-381); test: cell-based or functional assay
T1 sequence (looked up): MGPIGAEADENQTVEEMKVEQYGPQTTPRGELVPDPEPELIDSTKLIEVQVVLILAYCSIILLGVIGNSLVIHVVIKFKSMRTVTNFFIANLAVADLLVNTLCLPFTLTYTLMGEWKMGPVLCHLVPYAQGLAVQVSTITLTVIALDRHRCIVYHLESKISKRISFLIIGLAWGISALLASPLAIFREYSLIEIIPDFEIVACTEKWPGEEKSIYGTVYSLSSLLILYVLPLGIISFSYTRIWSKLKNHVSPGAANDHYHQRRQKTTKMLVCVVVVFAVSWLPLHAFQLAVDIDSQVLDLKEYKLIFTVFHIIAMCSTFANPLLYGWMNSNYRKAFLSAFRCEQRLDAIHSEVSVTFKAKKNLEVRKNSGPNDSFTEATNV

human Y2 receptor [4] = biological target: T1, human Y2 receptor; test: RBA: [125I]-PYY displacement, hY2R/CHO membranes
Summary of the method: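 Bound radioligand was collected by filtration on PEI-treated GF/C filters, washed with Tris/MgCl₂/NaCl/CHAPS buffer pH 7.4, and counted by scintillation; IC₅₀ values were calculated.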

| Molecule | GBA EC50 Ratio (vs PYY(3-36)), [35S]GTPγS [1] | IC50 Ratio (vs PYY(3-36)) [2] | GBA EC50 Ratio (vs PYY(3-36)), [35S]GTPγS (human Y2 receptor [3]) [ratio] | IC50 Ratio (vs PYY(3-36)) (human Y2 receptor [4]) [ratio] |
| --- | --- | --- | --- | --- |
| Ac-[Hyp23, D-Pro24, Cha27,28,36, Aib31]-PYY(23-36) (peptide) | 5 | 7.3 |  |  |
| Ac-[Hse23, D-Pro24, Cha27,28,36, Aib31]-PYY(23-36) (peptide) | 1.6 | 2.5 |  |  |
| Ac-[D-Iva23, D-Pro24, Cha27,28,36, Aib31]-PYY(23-36) (peptide) | 31 | 20 |  |  |
| N-4-Pyridiniyl-[Pic(4)23, D-Pro24, Cha27,28,36, Aib31]-PYY(23-36) (peptide) | 3.4 | 4 |  |  |
| Ac-[Iva23, D-Pro24, Cha27,28,36, Aib31]-PYY(23-36) (peptide) | 17 | 13 |  |  |
| B1 |  |  | 15 | 19 |
| B2 |  |  | 16 | 15 |
| B3 |  |  | 2.9 | 4.1 |
| B4 |  |  | 1.1 | 1.9 |
| B5 |  |  | 2.9 | 4.8 |
| B6 |  |  | 4.7 | 5 |
| B7 |  |  | 24 | 14 |
| B8 |  |  | 8.1 | 9.8 |
| B9 |  |  | 2.4 | 4.1 |
| B10 |  |  | 22 | 34 |
| B11 |  |  | 17 | 29 |
